Source: US20200317768A1 (published 2020)

T1: cynomolgus monkey FcγRIIIaS extracellular domain, His-tagged (cynomolgus monkey, UniProt Q8SPW2 21-206 at identity 1.00))
T1 construct: also called cyno FcγRIIIaS; FcgRIIIaS; not shown: C-terminal His-tag
T1 chain: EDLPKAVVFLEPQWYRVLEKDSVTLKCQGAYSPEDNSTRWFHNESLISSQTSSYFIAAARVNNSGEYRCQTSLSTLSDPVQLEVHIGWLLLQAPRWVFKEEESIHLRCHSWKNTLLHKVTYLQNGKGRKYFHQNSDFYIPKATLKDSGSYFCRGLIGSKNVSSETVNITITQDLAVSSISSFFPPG

T2: cynomolgus monkey FcγRIIa3 extracellular domain, His-tagged (cynomolgus monkey)
T2 construct: also called cyno FcγRIIa3; FcgRIIa3; not shown: C-terminal His-tag
T2 chain: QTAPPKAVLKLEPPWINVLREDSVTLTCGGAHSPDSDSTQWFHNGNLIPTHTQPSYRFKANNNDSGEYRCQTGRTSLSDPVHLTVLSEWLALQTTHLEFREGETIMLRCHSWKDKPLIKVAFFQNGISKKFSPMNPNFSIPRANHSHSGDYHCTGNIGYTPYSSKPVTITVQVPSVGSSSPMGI

T3: human FcγRIIaR extracellular domain, His-tagged (human, UniProt P12318 34-217)
T3 construct: also called human FcγRIIa (type R); FcgRIIaR; not shown: C-terminal His-tag
T3 chain: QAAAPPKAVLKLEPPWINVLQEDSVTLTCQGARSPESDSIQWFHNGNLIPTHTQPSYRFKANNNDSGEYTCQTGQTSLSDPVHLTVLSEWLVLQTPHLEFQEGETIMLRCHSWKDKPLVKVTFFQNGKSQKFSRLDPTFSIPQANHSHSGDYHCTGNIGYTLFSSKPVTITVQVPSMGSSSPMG

T4: cynomolgus monkey FcγRIIa2 extracellular domain, His-tagged (cynomolgus monkey)
T4 construct: also called cyno FcγRIIa2; FcgRIIa2; not shown: C-terminal His-tag
T4 chain: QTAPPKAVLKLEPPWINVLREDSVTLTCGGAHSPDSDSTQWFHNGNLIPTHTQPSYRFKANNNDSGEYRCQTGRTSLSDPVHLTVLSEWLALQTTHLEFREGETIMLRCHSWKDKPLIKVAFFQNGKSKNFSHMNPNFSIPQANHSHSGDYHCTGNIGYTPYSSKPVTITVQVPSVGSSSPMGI

T5: cynomolgus monkey FcγRIIb extracellular domain, His-tagged (cynomolgus monkey)
T5 construct: also called cyno FcγRIIb; cynoFcγRIIb; not shown: C-terminal His-tag
T5 chain: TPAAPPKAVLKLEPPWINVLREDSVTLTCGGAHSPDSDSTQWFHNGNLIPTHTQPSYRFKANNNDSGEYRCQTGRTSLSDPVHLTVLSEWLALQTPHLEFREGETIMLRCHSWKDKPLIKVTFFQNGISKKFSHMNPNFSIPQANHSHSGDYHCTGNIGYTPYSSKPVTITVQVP

T6: human FcγRIIaH extracellular domain, His-tagged (human, UniProt P12318 34-217)
T6 construct: also called human FcγRIIa (type H); FcgRIIaH; not shown: C-terminal His-tag
T6 sequence: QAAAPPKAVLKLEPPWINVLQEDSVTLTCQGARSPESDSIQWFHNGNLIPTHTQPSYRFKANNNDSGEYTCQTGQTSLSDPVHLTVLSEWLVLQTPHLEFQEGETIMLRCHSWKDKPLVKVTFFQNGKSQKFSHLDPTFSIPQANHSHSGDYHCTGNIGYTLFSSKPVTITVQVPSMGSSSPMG

T7: cynomolgus monkey FcγRIIa1 extracellular domain, His-tagged (cynomolgus monkey)
T7 construct: also called cyno FcγRIIa1; FcgRIIa1; not shown: C-terminal His-tag
T7 chain: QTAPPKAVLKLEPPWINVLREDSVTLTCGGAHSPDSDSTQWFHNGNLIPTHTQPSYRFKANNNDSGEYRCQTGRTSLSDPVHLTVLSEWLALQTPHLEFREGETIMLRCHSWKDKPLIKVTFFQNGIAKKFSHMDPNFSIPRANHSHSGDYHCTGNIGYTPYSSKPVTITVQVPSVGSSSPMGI

T8: human FcγRIIb extracellular domain, His-tagged (human, UniProt P31994 43-217)
T8 construct: also called FcgRIIb (human); not shown: C-terminal His-tag
T8 sequence: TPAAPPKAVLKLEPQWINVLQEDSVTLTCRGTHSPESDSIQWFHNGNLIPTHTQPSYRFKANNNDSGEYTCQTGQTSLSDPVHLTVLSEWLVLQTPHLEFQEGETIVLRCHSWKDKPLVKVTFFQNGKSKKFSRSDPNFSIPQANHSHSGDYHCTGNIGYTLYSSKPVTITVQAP


Assays:
Experiment in all cases: SPR (BIACORE), 25 C, antibody captured, FcgR as analyte; KD of SG1 divided by KD of variant;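 note: relative to parent M103205H795-SG1 carrying the SG1 human heavy chain constant region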
[1] = biological target: T1, cynomolgus monkey FcγRIIIaS …
Protocol: (§1) The kinetic analysis of interactions between these antibodies and FcγR was carried out using BIACORE® T200 or BIACORE® 4000 (GE Healthcare). HBS-EP+ (GE Healthcare) was used as the running buffer, and the measurement temperature was set to 25° C. A chip produced by immobilizing Protein A. Protein A/G or mouse anti-human IgG kappa light chain (BD Biosciences) onto a Series S Sensor Chip CM4 or CM5 (GE Healthcare) by the amine-coupling method was used. […] After the measurement, the antibody captured on the chip was washed off by allowing reaction with 10 mM glycine-HCl, pH1.5 and 25 mM NaOH so that the chip was regenerated and used repeatedly. The sensorgrams obtained as measurement results were analyzed by the 1:1 Langmuir binding model using the BIACORE® Evaluation Software to calculate the binding rate constant ka (L/mol/s) and dissociation rate constant kd (l/s), and the dissociation constant KD (mol/L) was calculated from these values. […] Regarding such interactions, KD values were calculated using the following 1:1 binding model described in BIACORE® T100 Software Handbook BR1006-48 Edition AE.

[2] = biological target: T2, cynomolgus monkey FcγRIIa3 …
Protocol: as §1

[3] = biological target: T3, human FcγRIIaR extracellular domain, …
Protocol: as §1

[4] = biological target: T4, cynomolgus monkey FcγRIIa2 …
Protocol: as §1

[5] = biological target: T5, cynomolgus monkey FcγRIIb extracellular …
Protocol: as §1

[6] = biological target: T6, human FcγRIIaH extracellular domain, …
Protocol: as §1

[7] = biological target: T7, cynomolgus monkey FcγRIIa1 …
Protocol: as §1

[8] = biological target: T8, human FcγRIIb extracellular domain, …
Protocol: as §1

[9] = biological target: T9, human FcγRIIIaV extracellular domain, His-tagged (human, UniProt P08637 17-208)
T9 construct: also called human FcγRIIIa (V158); FcgRIIIaV; not shown: C-terminal His-tag
T9 sequence (P08637 17-208 F176V): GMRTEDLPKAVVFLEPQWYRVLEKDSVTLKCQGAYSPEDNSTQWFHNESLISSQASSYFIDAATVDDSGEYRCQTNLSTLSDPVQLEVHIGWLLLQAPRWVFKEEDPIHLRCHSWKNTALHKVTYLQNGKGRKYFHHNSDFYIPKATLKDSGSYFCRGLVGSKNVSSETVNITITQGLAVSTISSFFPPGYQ
Protocol: as §1

Binder	KD fold (SG1 = 1) [1]	KD fold (SG1 = 1) [2]	KD fold (SG1 = 1) [3]	KD fold (SG1 = 1) [4]	KD fold (SG1 = 1) [5]	KD fold (SG1 = 1) [6]	KD fold (SG1 = 1) [7]	KD fold (SG1 = 1) [8]	KD fold (SG1 = 1) [9]
M103205H795-MY450 / M103202L889-SK1 (antibody, human IgG1, kappa, substitution positions are EU numbers) heavy: QVTLKESGPVLVKPTETLTLTCTVSGIDLSHDDISWVRQAPGKGLEWVGIISYAGSTYYASWAKGRLTISKDTSKNQVVLTMTNMDPVDTATYYCARGVPAYSHGGDLWGQGTLVTVSSASTKGPSVFPLAPSSKSTSGGTAALGCLVKDYFPEPVTVSWNSGALTSGVHTFPAVLQSSGLYSLSSVVTVPSSSLGTQTYICNVNHKPSNTKVDKKVEPKSCDKTHTCPPCPAMELLTGPSVFLFPPKPKDTLMISRTPEVTCVVVDVSDEDPEVKFNWYVDGVEVHNAKTKPREEQYNSTYRVVSVLTVLHQDWLNGKEYKCKVSNKALPKPIEKTISKAKGQPREPQVYTLPPSREEMTKNQVSLTCLVKGFYPSDIAVEWESNGQPENNYKTTPPVLDSDGSFFLYSKLTVDKSRWQQGNVFSCSVMHEALHNHYTQKSLSLSP light: DIVMTQSPATLSLSPGERATLSCTSSQSVYHANWLSWFQQKPGQPPKLLIYWASTLAYGVPSRFSGSGSGTDFTLTISSLQPEDAATYYCAGGYGGGRYAFGQGTKVEIKRTVAAPSVFIFPPSDEQLKSGTASVVCLLNNFYPREAKVQWKVDNALQSGNSQESVTEQDSKDSTYSLSSTLTLSKADYEKHKVYACEVTHQGLSSPVTKSFNRGEC	0.3 fold	7.7 fold	9.2 fold	4.6 fold	6.4 fold	5.8 fold	2.3 fold	9.3 fold	0.3 fold
M103205H795-MY451 / M103202L889-SK1 (antibody, human IgG1, kappa, substitution positions are EU numbers) heavy: QVTLKESGPVLVKPTETLTLTCTVSGIDLSHDDISWVRQAPGKGLEWVGIISYAGSTYYASWAKGRLTISKDTSKNQVVLTMTNMDPVDTATYYCARGVPAYSHGGDLWGQGTLVTVSSASTKGPSVFPLAPSSKSTSGGTAALGCLVKDYFPEPVTVSWNSGALTSGVHTFPAVLQSSGLYSLSSVVTVPSSSLGTQTYICNVNHKPSNTKVDKKVEPKSCDKTHTCPPCPANELLTGPSVFLFPPKPKDTLMISRTPEVTCVVVDVSDEDPEVKFNWYVDGVEVHNAKTKPREEQYNSTYRVVSVLTVLHQDWLNGKEYKCKVSNKALPKPIEKTISKAKGQPREPQVYTLPPSREEMTKNQVSLTCLVKGFYPSDIAVEWESNGQPENNYKTTPPVLDSDGSFFLYSKLTVDKSRWQQGNVFSCSVMHEALHNHYTQKSLSLSP light: DIVMTQSPATLSLSPGERATLSCTSSQSVYHANWLSWFQQKPGQPPKLLIYWASTLAYGVPSRFSGSGSGTDFTLTISSLQPEDAATYYCAGGYGGGRYAFGQGTKVEIKRTVAAPSVFIFPPSDEQLKSGTASVVCLLNNFYPREAKVQWKVDNALQSGNSQESVTEQDSKDSTYSLSSTLTLSKADYEKHKVYACEVTHQGLSSPVTKSFNRGEC	0.1 fold	1.5 fold	1.7 fold	1.2 fold	1.8 fold	1.7 fold	0.9 fold	1.5 fold	0.1 fold
M103205H795-MY452 / M103202L889-SK1 (antibody, human IgG1, kappa, substitution positions are EU numbers) heavy: QVTLKESGPVLVKPTETLTLTCTVSGIDLSHDDISWVRQAPGKGLEWVGIISYAGSTYYASWAKGRLTISKDTSKNQVVLTMTNMDPVDTATYYCARGVPAYSHGGDLWGQGTLVTVSSASTKGPSVFPLAPSSKSTSGGTAALGCLVKDYFPEPVTVSWNSGALTSGVHTFPAVLQSSGLYSLSSVVTVPSSSLGTQTYICNVNHKPSNTKVDKKVEPKSCDKTHTCPPCPAQELLTGPSVFLFPPKPKDTLMISRTPEVTCVVVDVSDEDPEVKFNWYVDGVEVHNAKTKPREEQYNSTYRVVSVLTVLHQDWLNGKEYKCKVSNKALPKPIEKTISKAKGQPREPQVYTLPPSREEMTKNQVSLTCLVKGFYPSDIAVEWESNGQPENNYKTTPPVLDSDGSFFLYSKLTVDKSRWQQGNVFSCSVMHEALHNHYTQKSLSLSP light: DIVMTQSPATLSLSPGERATLSCTSSQSVYHANWLSWFQQKPGQPPKLLIYWASTLAYGVPSRFSGSGSGTDFTLTISSLQPEDAATYYCAGGYGGGRYAFGQGTKVEIKRTVAAPSVFIFPPSDEQLKSGTASVVCLLNNFYPREAKVQWKVDNALQSGNSQESVTEQDSKDSTYSLSSTLTLSKADYEKHKVYACEVTHQGLSSPVTKSFNRGEC	0.1 fold	1.6 fold	1.8 fold	1.6 fold	2 fold	1.9 fold	0.9 fold	1.6 fold	0.1 fold
